Assay results published in patent publication US20250154237A1 (A AND G PHARMACEUTICAL, published 2025).

T1: human recombinant his-tagged full-length progranulin (human, UniProt P28799 18-593)
T1 construct: mature; also called huPGRN; hu PGRN; not shown: his tag
T1 sequence (looked up): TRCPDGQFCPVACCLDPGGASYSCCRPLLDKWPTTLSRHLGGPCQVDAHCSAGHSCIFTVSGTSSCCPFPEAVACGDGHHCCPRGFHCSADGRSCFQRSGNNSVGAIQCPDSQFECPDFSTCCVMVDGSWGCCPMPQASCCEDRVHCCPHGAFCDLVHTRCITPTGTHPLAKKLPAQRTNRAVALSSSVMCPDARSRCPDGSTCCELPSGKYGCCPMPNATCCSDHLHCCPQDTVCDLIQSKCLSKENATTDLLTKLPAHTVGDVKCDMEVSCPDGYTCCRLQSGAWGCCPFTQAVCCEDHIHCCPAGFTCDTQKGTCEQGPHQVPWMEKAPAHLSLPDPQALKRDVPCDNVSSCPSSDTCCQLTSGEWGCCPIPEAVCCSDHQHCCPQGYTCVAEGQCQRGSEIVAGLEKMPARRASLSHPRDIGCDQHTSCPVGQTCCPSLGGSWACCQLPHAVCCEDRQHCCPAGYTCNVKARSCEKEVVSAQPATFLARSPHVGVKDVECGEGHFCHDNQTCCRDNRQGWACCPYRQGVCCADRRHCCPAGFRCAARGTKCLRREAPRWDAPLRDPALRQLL


Tests used:
[1] = molecular target: T1, human recombinant his-tagged …; assay: flow cytometry: progranulin binding to MDA-MB-231 cells with the antibody, % of hIgG control
Protocol: Progranulin Binding by Flow Cytometry. Binding assays were carried out on an […] Flow Cytometer using the instructions included therein. […] Out of the 45 mAbs assayed, 11 clones (shown in bold in Table 5) produced antibodies that were able to inhibit progranulin binding in a dose dependent fashion.

[2] = molecular target: T1, human recombinant his-tagged …; assay: BLI OctetRed96, mAb captured on AHC sensors, huPGRN as analyte, 25 C; parameters: Response: unit not given here
Protocol: Determination of Binding Affinity by Octet. OctetRed96 BLI technology was used to examine the binding characteristics of selected fully human antibodies to progranulin. The method is briefly described herein. Assays were performed at 25° C. Pre-conditioning of the pre hydrated (1 hr) anti-human Fc capture (AHC) sensors was performed by repeating 3 cycles of dipping sensors in regeneration buffer followed by neutralizing buffer (PBS). Anti-progranulin mAbs were captured at 20 μg/ml for 360 seconds on pre-conditioned biosensors. Sensors were then dipped in baseline buffer similar to the progranulin diluent (PBS). Sensors were then dipped into progranulin-containing wells as indicated for 420 seconds. The dissociation step was carried out in assay buffer (PBS) for 600 seconds. The KD was determined based on Kₒₙ and Koff using the experimental conditions described above.

% Control [1] [%]	Kd [2] [pM]	Response [2]	koff [2] [s⁻¹]	kon [2] [M⁻¹ s⁻¹]	Binder
62	136	0.797	1.19e-05	86800	10B3 (antibody, V domains shown, Fully human mAb from TC-mAb mouse hybridoma; also called mAb 10B3) VH: QVQLVESGGGVVQPGRSLRLSCAASGFTLSGYGMHWVRQAPDKGLEWVAVIWYDGSDKNYADSVKGRFTISRDNSKNTLYLQMNSLRAEDTAVYYCARDRGAVAGDYWGQGTLVTVSS VL: not shown
60	476	0.932	7.21e-05	152000	16C11 (antibody, V domains shown, Fully human mAb from TC-mAb mouse hybridoma; also called mAb 16C11) VH: QVQLVESGGGVVQPGRSLRLSCAASGFTFSSYAMHWVRQAPGKGLEWVAVIWYDGSKKYNADSVKGRFTISRDNSKNTLYLQMNSLRAEDTAVYYCARDRGIGGDYWGQGTLVTVSS VL: not shown
116	587	0.64	2.95e-05	50300	14A6 (antibody, V domains shown, Fully human mAb from TC-mAb mouse hybridoma; also called mAb 14A6) VH: QVQLVESGGGVVQPGRSLRLSCAASGFTFSNYGMHWVRQAPGKGLEWVAVIWYDGSNKYYADSVKGRFTISRDNSKNTLYLQMNSLRAEDTAVYYCARGHSVSGGDYWGQGTLVTVSS VL: DIQMTQSPSSLSASVGDRVTITCRASQSVNSFLNWYQQTPGKAPKLLIYAASSLQSGVPPRFSGSGSGTDFTLTISSLQPEDFATYYCQQSYSTPYTFGQGTKLEIN
55	4.13	0.89	5.38e-07	130000	10C8 (antibody, V domains shown, Fully human mAb from TC-mAb mouse hybridoma; also called mAb 10C8) VH: QVQLVQSGAEVKKPGASVKVSCKASGYTLTSYGISWVRQAPGQGLEWMGWISAYNGNTNYAQKLQGRVTMTTDTSTSTAYMELRSLRSDDTAVYYCARELLWFGELLSQYYYYGMDVWGQGTTVTVSS VL: DIQMTQSPSTLSASVGDRVTITCRASQNISRWLAWYQQKPGKAPKLLIFRASSLETGVPSRFGGSGSGTEFTLTISSLQPDDFATYYCQQYNSYYTFGQGTRLEIK
